Measurements published in PMC3900688, “Expression and Purification of Chaperone-Active Recombinant Clusterin” (PLoS ONE, 2014).

B1: wild type clusterin purified from human plasma (natural protein)
chain 1: DQTVSDNELQEMSNQGSKYVNKEIQNAVNGVKQIKTLIEKTNEERKTLLSNLEEAKKKKEDALNETRESETKLKELPGVCNETMMALWEECKPCLKQTCMKFYARVCRSGSGLVGRQLEEFLNQSSPFYFWMNGDRIDSLLENDRQQTHMLDVMQDHFSRASSIIDELFQDRFFTREPQDTYHYLPFSLPHRRPHFFFPKSRIVR
chain 2: SLMPFSPYEPLNFHAMFQPFLEMIHEAQQAMDIHFHSPAFQHPPTEFIREGDDDRTVCREIRHNSTGCLRMKDQCDKCREILSVDCSTNNPSQAKLRRELDESLQVAERLTRKYNELLKSYQWKMLNTSSLLEQLNEQFNWVSRLANLTQGEDQYYLRVTTVASHTSDSDVPSGVTEVVVKLFDSDPITVTVPVEVSRKNPKFMETVAEKALQEYRKKHREE
modifications: glycosylated | glycosylated
notes: clusterin beta-chain, human; joined to the alpha-chain by 5 disulfide bonds; clusterin alpha-chain, human; joined to the beta-chain by 5 disulfide bonds; Disulphide-bonded alpha-beta heterodimer with heterogeneous glycosylation, from pooled donors; also called wtCLU; human plasma clusterin
B2: mammalian cell-expressed recombinant clusterin secreted by stably transfected HEK293 cells (natural protein, human)
chain 1: DQTVSDNELQEMSNQGSKYVNKEIQNAVNGVKQIKTLIEKTNEERKTLLSNLEEAKKKKEDALNETRESETKLKELPGVCNETMMALWEECKPCLKQTCMKFYARVCRSGSGLVGRQLEEFLNQSSPFYFWMNGDRIDSLLENDRQQTHMLDVMQDHFSRASSIIDELFQDRFFTREPQDTYHYLPFSLPHRRPHFFFPKSRIVR
chain 2: SLMPFSPYEPLNFHAMFQPFLEMIHEAQQAMDIHFHSPAFQHPPTEFIREGDDDRTVCREIRHNSTGCLRMKDQCDKCREILSVDCSTNNPSQAKLRRELDESLQVAERLTRKYNELLKSYQWKMLNTSSLLEQLNEQFNWVSRLANLTQGEDQYYLRVTTVASHTSDSDVPSGVTEVVVKLFDSDPITVTVPVEVSRKNPKFMETVAEKALQEYRKKHREE
modifications: glycosylated | glycosylated
notes: clusterin beta-chain, human, from human CLU cDNA in pRcCMV; secreted and cleaved into alpha- and beta-chains; clusterin alpha-chain, human, from human CLU cDNA in pRcCMV; Disulphide-bonded alpha-beta heterodimer, less glycosylated than plasma clusterin; No tag is stated; also called m-rCLU; rCLU

Molecular target: the molecule itself
Assay: SEC; Superose 6 10/300 column in PBS/Az, 0.3 ml/min, A280 monitored; self-association (mixture of oligomers)

Protein | binding result
B1 | binds
B2 | binds
